Experimental findings from patent US20230357420A1 (VILLARIS THERAPEUTICS, published 2023) are described below.

Read-outs that look alike come from different tables or passages of the source.

For one assay, the target named is T1, CILP2 (human, UniProt Q8IUL8 21-1156).
T1 construct: whole, on cells; Secreted protein; tether not described; also called cartilage intermediate layer protein 2 (on transfected cells)
T1 sequence (looked up): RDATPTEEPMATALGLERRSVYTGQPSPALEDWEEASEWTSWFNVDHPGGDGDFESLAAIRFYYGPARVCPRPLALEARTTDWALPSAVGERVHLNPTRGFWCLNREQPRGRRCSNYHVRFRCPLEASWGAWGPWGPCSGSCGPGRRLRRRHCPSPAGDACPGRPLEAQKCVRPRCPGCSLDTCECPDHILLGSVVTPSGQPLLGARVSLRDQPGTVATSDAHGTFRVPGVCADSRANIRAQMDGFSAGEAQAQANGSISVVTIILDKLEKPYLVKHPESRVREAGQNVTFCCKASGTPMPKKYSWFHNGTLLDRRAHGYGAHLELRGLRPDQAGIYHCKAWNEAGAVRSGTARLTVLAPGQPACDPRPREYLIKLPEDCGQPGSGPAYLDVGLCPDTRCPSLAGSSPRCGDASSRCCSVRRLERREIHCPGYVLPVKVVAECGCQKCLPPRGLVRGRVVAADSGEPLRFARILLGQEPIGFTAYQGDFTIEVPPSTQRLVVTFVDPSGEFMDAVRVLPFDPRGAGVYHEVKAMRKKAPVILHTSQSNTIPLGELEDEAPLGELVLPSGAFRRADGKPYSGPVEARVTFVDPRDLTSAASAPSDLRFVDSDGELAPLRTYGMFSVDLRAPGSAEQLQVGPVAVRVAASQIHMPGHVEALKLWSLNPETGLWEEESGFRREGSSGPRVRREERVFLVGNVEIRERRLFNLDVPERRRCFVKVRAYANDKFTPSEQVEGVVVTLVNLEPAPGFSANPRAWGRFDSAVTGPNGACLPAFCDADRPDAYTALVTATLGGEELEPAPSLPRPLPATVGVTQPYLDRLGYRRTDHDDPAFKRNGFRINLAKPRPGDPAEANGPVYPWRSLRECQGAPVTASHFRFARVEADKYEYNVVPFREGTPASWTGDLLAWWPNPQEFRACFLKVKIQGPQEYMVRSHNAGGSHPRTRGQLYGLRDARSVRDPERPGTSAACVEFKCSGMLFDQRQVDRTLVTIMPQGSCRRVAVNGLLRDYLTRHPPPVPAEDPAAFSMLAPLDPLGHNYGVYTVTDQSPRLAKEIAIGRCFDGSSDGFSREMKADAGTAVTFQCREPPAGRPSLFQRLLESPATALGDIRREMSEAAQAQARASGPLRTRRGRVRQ
Kind of assay: Retrogenix cell microarray.

For a further assay, the target named is T2, Neudesin (human, UniProt Q9UMX5 32-172).
T2 construct: whole, on cells; Secreted protein; the tether is not described; also called NENF; neudesin neurotrophic factor (on transfected cells)
Kind of assay: Retrogenix cell microarray.

Assay [1] concerns the target T3, Rhesus CD122 (rhesus monkey, UniProt Q38J85 27-551 (cynomolgus entry)).
T3 construct: also called rhCD122 on cells
T3 sequence: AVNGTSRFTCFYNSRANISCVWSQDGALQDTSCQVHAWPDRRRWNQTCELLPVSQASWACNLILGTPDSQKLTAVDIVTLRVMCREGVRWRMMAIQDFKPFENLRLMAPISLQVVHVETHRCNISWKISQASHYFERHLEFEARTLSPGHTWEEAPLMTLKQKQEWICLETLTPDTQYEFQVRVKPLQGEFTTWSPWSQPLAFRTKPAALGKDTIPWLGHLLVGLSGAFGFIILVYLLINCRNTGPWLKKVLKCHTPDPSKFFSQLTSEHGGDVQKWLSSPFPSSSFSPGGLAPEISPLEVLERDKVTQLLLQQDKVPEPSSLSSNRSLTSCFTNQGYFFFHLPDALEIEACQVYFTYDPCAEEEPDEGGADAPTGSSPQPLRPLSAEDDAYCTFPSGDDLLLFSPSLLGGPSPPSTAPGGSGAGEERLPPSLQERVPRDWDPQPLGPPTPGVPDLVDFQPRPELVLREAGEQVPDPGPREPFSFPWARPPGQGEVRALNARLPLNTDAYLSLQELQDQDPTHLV
Kind of assay: flow cytometry (FACS) on rhIL15Rβ-transfected CHO-K1 cells, anti-human IgG-FITC, GeoMFI. The protocol:
(§1) Purified IgGs were tested in FACs for binding to human and rhesus CD122 expressed on CHO-K1 stable cell lines and CHO-K1 wild-type cells. The IgG samples were titrated in three-fold serial dilutions starting at 500 nM to […]. Binding of IgGs was detected with a mouse anti-human IgG conjugated to FITC. Results were analyzed by examining the Mean Fluorescence Intensity (MFI) of 10000 cells per sample in the BL-1 channel detector of a flow cytometer (AttuneTM NxT Acoustic Focusing Cytometer, Invitrogen/ ThermoFisher Scientific).
On the technique in general: In flow cytometry, cells or beads pass a laser one at a time.

The target of assay [2] is T3, Rhesus CD122. The description is as above. On the procedure:
as §1
This is another data set of the same source.

Another assay deals with T4, Human CD122 (human, UniProt P14784 27-551).
T4 construct: also called hCD122; IL2RB
T4 sequence: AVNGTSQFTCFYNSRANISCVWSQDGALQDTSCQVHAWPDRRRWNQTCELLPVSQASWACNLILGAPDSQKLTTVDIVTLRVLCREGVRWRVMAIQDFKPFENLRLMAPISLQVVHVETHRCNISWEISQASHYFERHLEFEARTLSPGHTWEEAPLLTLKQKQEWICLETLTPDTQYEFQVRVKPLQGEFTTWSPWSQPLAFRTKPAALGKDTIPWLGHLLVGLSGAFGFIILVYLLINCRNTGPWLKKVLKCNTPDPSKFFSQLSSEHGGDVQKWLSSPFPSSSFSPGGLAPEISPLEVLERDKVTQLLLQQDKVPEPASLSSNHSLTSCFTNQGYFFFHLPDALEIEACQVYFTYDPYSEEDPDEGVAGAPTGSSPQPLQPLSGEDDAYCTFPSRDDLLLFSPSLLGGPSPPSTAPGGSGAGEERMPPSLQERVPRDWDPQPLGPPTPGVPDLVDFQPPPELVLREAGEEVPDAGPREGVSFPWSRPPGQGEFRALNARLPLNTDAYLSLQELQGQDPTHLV
Kind of assay: flow cytometry (FACS) on huIL15Rβ-transfected CHO-K1 cells, anti-human IgG-FITC, GeoMFI. On the procedure:
as §1

Assay [3] concerns the target T3, Rhesus CD122. Kind of assay: flow cytometry (FACS) on rhIL15Rβ-transfected CHO-K1 cells, anti-human IgG-FITC, GeoMFI. The protocol:
as §1
The source holds these as a separate data set.

T2 sequence (Q9UMX5 32-172): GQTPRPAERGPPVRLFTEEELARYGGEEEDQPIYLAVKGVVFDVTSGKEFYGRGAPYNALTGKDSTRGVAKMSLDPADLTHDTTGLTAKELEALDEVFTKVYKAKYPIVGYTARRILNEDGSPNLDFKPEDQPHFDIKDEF

B1: IgG1-MIKβ1 (humanized) (antibody, V domains shown)
VH: EVQLLESGGGLVQPGGSLRLSCAASGFSVTSYGVHWIRQAPGKGLEWLGVIWSGGSTDYNAAFISRLTISKDNSKNTVYFQMNSLQAEDTAIYYCARAGDYNYDGFAYWGQGTLVTVSS
VL: DIVLTQSPSSLSASVGDRVTITCSGSSSVSFMYWYQQRPGKAPRLLIYDTSNLASGVPSRFSGSGSGTSYTFTISSLQPEDIATYYCQQWSTYPLTFGQGTKVEVK
notes: also called VillMab-1; VillMAB-1
By EC50 (read off the curve) is commonly meant the concentration giving half of the maximal effect. Read a high EC50 (read off the curve) as lower potency in that assay. As for B1, the binding result with CILP2 and with Neudesin was “no binding” throughout. In addition, the “EC50 (read off the curve)” value with Rhesus CD122 [1] is around 600 pM; with Rhesus CD122 [2], around 600 pM; in the assay with Human CD122, around 900 pM; with Rhesus CD122 [3], around 600 pM.
